Values belong to the substance of their own block, whether it stands above or below them.
Tests used:
[1] = biological target: SH2 domain of the tyrosine kinase Fyn (UniProt P06241); experiment: competition with pYEEI beads for radioactive Fyn SH2 domain (200 nM), no FKBP52
[2] = biological target: recombinant FKBP52 with a tag of six histidine residues at its N-terminus (UniProt Q02790); experiment: isothermal titration calorimetry, 25 C
recombinant FKBP12 = recombinant FKBP12 (UniProt P62942); experiment: isothermal titration calorimetry, 25 C
Chain of recombinant FKBP12 (P62942 whole entry, the tested form may be a part): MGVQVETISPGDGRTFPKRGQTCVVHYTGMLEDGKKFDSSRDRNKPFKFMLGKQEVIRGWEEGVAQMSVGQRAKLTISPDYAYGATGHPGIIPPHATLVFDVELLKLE

[3] = biological target: SH2 domain of the tyrosine kinase Fyn (UniProt P06241); experiment: isothermal titration calorimetry, 25 C
[4] = biological target: SH2 domain of the tyrosine kinase Fyn (UniProt P06241); experiment: ratio of Kd values, isothermal titration calorimetry
[5] = biological target: SH2 domain of the tyrosine kinase Fyn (UniProt P06241); experiment: competition with pYEEI beads for radioactive Fyn SH2 domain (200 nM), FKBP52 at 4.5 uM
[6] = biological target: SH2 domain of the tyrosine kinase Fyn (UniProt P06241); experiment: isothermal titration calorimetry, Fyn SH2 domain binding to the FKpYEEI-FKBP52 complex
[7] = biological target: SH2 domain of the tyrosine kinase Fyn (UniProt P06241); experiment: ratio of IC50 values, competition with pYEEI beads
[8] = biological target: phosphotyrosine peptide NH2-pYEEI-COOH; experiment: radioactive SH2 domain (200 nM) on pYEEI Affi-Gel beads, scintillation counting
[9] = biological target: phosphotyrosine peptide NH2-pYEEI-COOH; experiment: radioactive SH2 domain on an increased amount of pYEEI Affi-Gel beads
[10] = biological target: SH2 domain of the tyrosine kinase Fyn (UniProt P06241); experiment: competition with pYEEI beads for radioactive Fyn SH2 domain (200 nM), no FKBP12
[11] = biological target: SH2 domain of the tyrosine kinase Fyn (UniProt P06241); experiment: isothermal titration calorimetry, Fyn SH2 domain binding to the SLFpYEEI-FKBP12 complex
[12] = biological target: SH2 domain of the tyrosine kinase Fyn (UniProt P06241); experiment: competition with pYEEI beads for radioactive Fyn SH2 domain (200 nM), FKBP12 at 20 uM
[13] = biological target: SH2 domain of the tyrosine kinase Fyn (UniProt P06241); experiment: competition of free pYEEI with pYEEI beads for radioactive Fyn SH2 domain (200 nM)

Chain of SH2 domain of the tyrosine kinase Fyn (P06241 143-248): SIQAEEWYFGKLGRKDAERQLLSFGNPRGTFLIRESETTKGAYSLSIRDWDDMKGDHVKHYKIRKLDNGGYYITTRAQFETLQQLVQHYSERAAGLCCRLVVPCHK
Chain of recombinant FKBP52 with a tag of six histidine residues at its N-terminus (Q02790 whole entry): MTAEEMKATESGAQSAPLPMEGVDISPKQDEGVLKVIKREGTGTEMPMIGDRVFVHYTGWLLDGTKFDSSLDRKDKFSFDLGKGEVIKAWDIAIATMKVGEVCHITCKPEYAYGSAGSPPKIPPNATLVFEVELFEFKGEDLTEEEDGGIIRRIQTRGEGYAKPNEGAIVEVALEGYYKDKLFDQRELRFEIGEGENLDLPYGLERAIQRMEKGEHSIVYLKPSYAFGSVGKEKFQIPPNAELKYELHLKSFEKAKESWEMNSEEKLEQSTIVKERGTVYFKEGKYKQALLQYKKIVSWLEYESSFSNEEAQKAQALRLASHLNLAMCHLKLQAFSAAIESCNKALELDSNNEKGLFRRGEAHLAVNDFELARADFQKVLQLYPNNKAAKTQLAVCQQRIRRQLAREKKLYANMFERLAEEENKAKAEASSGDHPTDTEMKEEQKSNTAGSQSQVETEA
Chain of N-terminal SH2 domain of PLC (P19174 550-657): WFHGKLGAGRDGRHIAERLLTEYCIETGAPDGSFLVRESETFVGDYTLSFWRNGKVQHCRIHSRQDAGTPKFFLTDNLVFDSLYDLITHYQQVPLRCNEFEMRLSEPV

IC50 [1]: 750 nM
Kd [2]: 150 nM
Kd (recombinant FKBP12): 45 nM
Kd [3]: 520 nM
Substance: FKpYEEI (pYEEI peptide chemically linked to FK506)

fold enhancement of Kd against FKpYEEI alone [4]: 4 fold
IC50 [5]: 250 nM
Kd [6]: 130 nM
fold enhancement of affinity against FKpYEEI alone [7]: 3 fold
fold enhancement of affinity against pYEEI [7]: 4.4 fold
Substance: FKpYEEI-FKBP52 complex (binary complex of FKBP52 and FKpYEEI) (from UniProt Q02790 1-459)

percent of SH2 domain bound to the beads [8]: 25%
percent of SH2 domain bound to the beads [9]: 40%
Substance: N-terminal SH2 domain of PLC

percent of SH2 domain bound to the beads [8]: 65%
percent of SH2 domain bound to the beads [9]: 80%
Substance: SH2 domain of the tyrosine kinase Fyn (from UniProt P06241 143-248)

percent of SH2 domain bound to the beads [8]: 15%
percent of SH2 domain bound to the beads [9]: 25%
Substance: SH2 domain of the tyrosine kinase Lck (from UniProt P06239 120-226)

IC50 [10]: 250 nM
Kd [2]: 5000 nM
Kd (recombinant FKBP12): 61 nM
Kd [3]: 183 nM
Substance: SLFpYEEI (SLF coupled to the N-terminus of the pYEEI peptide)

Kd [11]: 1500 nM
fold reduction of affinity against SLFpYEEI alone [7]: 6 fold
IC50 [12]: 1500 nM
Substance: SLFpYEEI-FKBP12 complex (binary complex of SLFpYEEI and FKBP12) (from UniProt P62942 1-108)

IC50 [13]: 1100 nM
Substance: phosphotyrosine peptide NH2-pYEEI-COOH

Reference: patent publication US20020147133A1
